Data reported in patent US20260265360A1 (NEURACLE SCIENCE, published 2026).
Ends that are not written are not given here.

T1: FAM19A5 mutant M2 (human)
T1 chain: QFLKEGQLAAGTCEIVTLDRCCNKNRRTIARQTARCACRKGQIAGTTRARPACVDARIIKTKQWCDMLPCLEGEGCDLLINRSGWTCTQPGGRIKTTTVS

T2: FAM19A5 epitope fragment F2, BSA-conjugated (human, conjugated to BSA)
T2 peptide: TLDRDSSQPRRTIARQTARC

T3: FAM19A5 mutant M7 (human)
T3 chain: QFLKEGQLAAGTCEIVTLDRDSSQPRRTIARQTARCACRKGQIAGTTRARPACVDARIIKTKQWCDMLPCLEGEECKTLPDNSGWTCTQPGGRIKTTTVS

T4: FAM19A5 mutant M8 (human)
T4 chain: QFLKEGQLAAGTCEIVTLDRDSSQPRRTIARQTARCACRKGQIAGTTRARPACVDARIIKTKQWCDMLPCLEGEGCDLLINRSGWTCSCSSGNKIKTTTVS

T5: Mutant F5 peptide F5-5 (#5) (human)
T5 construct: already contained in the entry; also called mutant peptide #5
T5 peptide: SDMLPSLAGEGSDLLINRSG

T6: Mutant F5 peptide F5-2 (#2) (human)
T6 construct: already contained in the entry; also called mutant peptide #2
T6 peptide: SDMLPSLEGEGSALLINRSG

T7: Mutant F5 peptide F5-3 (#3) (human)
T7 construct: already contained in the entry; also called mutant peptide #3
T7 peptide: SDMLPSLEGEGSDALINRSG

T8: Mutant F5 peptide F5-7 (#7) (human)
T8 construct: already contained in the entry; also called mutant peptide #7
T8 peptide: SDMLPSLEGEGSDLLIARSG

T9: Mutant F5 peptide F5-8 (#8) (human)
T9 construct: already contained in the entry; also called mutant peptide #8
T9 peptide: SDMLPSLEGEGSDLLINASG

T10: Mutant F5 peptide F5-4 (#4) (human)
T10 construct: already contained in the entry; also called mutant peptide #4
T10 peptide: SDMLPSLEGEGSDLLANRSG

T11: Mutant F5 peptide F5-6 (#6) (human)
T11 construct: already contained in the entry; also called mutant peptide #6
T11 peptide: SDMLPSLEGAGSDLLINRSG

T12: Mutant F5 peptide F5-1 (#1) (human)
T12 construct: already contained in the entry; also called mutant peptide #1
T12 peptide: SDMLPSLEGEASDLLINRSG

T13: FAM19A5 mutant M6 (human)
T13 chain: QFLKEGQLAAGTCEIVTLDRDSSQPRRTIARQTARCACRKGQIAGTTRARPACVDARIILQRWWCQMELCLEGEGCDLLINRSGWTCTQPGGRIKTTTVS

T14: FAM19A5 epitope fragment F3, BSA-conjugated (human, conjugated to BSA)
T14 peptide: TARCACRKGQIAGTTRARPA

T15: FAM19A5 epitope fragment F6, BSA-conjugated (human, conjugated to BSA)
T15 peptide: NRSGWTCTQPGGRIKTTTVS

T16: FAM19A5 epitope fragment F1, BSA-conjugated (human, also: conjugated to BSA)
T16 construct: which number belongs to which fragment is not spelled out
T16 peptide: QLAAGTCEIVTLDR


How the values were obtained:
FAM19A5 mutant M2 = biological target: T1, FAM19A5 mutant M2; assay: ELISA on phage-expressed FAM19A5 mutants M1-M8
[1] = biological target: T2, FAM19A5 epitope fragment F2, …; assay: ELISA, plate-coated BSA-conjugated FAM19A5 fragments F1-F6
Method: (§1) Binding of the different anti-FAM19A5 antibodies to the BSA-conjugated peptide fragments F1-F6 was determined by Western blot analysis or ELISA assay. For the Western blot analysis, BSA-conjugated FAM19A5 fragments F1-F6 were separated by SDS polyacrylamide gel electrophoresis and transferred to a nitrocellulose membrane by the standard procedure. The membrane was incubated with the anti-FAM19A5 antibody (e.g., 1-65, […], 1-65-scFv-rabbit Fc-SSS), and the antigen-antibody complexes were detected with the appropriate secondary antibody conjugated with horse-radish peroxidase (anti-rabbit IgG (Fc specific)-HRP, 1:4000 dilution). For the ELISA assay, the following protocol was used. FAM19A5 fragment F1-F6 (diluted to 1 μg/mL in 50 mM carbonate buffer (Biosesang) or to 20 μg/mL for high concentration analysis) were used to coat the wells of 96-well immuno plates (Thermo Scientific) (100 μL/well) overnight at 4° C. and then subsequently washed twice in 1×PBS. The plates were then blocked with the blocking buffer (100 μL/well) for 1 hour at room temperature. During the 1-hour incubation, the relavant anti-FAM19A5 antibodies were diluted to 1 μg/mL (or 20 μg/mL for high concentration analysis) in the diluent buffer. Once the plates were washed (2× using 1×PBS), the diluted anti-FAM19A5 antibodies were added to the appropriate wells, and the plates were incubated at room temperature for 1 hour. The plates were subsequently washed for a total of five times using the washing buffer. Next, the ODP substrate (prepared by dissolving one ODP tablet (O-phenylenediamine Dihydrochloride, Thermo) into 9 mL of sterilized deionized water and 1 mL of 10× stable Peroxide Stable buffer (Theromo)) was added to each of the wells, and the color change reaction was allowed to occur for 10 minutes. This reaction was stopped by adding 100 μL of 2N H2SO4 (Daejung) to the wells. The absorption value of each of the wells was detected at 492 nm using a 96-well microplate reader (Molecular Device).
(§2) As shown in FIGS. 19 and 20A, the anti-FAM19A5 antibody 1-65 bound strongly to fragment F5 as measured by both Western Blot and ELISA assay, respectively.

FAM19A5 mutant M7 = biological target: T3, FAM19A5 mutant M7; assay: ELISA on phage-expressed FAM19A5 mutants M1-M8
FAM19A5 mutant M8 = biological target: T4, FAM19A5 mutant M8; assay: ELISA on phage-expressed FAM19A5 mutants M1-M8
[2] = biological target: T5, Mutant F5 peptide F5-5 (#5); assay: ELISA, plate-coated F5 mutant peptides
[3] = biological target: T6, Mutant F5 peptide F5-2 (#2); assay: ELISA, plate-coated F5 mutant peptides
[4] = biological target: T7, Mutant F5 peptide F5-3 (#3); assay: ELISA, plate-coated F5 mutant peptides
[5] = biological target: T8, Mutant F5 peptide F5-7 (#7); assay: ELISA, plate-coated F5 mutant peptides
[6] = biological target: T9, Mutant F5 peptide F5-8 (#8); assay: ELISA, plate-coated F5 mutant peptides
[7] = biological target: T10, Mutant F5 peptide F5-4 (#4); assay: ELISA, plate-coated F5 mutant peptides
[8] = biological target: T11, Mutant F5 peptide F5-6 (#6); assay: ELISA, plate-coated F5 mutant peptides
[9] = biological target: T12, Mutant F5 peptide F5-1 (#1); assay: ELISA, plate-coated F5 mutant peptides
FAM19A5 mutant M6 = biological target: T13, FAM19A5 mutant M6; assay: ELISA on phage-expressed FAM19A5 mutants M1-M8
[10] = biological target: T14, FAM19A5 epitope fragment F3, …; assay: ELISA, plate-coated BSA-conjugated FAM19A5 fragments F1-F6
Method: as §1, §2

[11] = biological target: T15, FAM19A5 epitope fragment F6, …; assay: as above
Method: as §1, §2

[12] = biological target: T16, FAM19A5 epitope fragment F1, …; assay: as above
Method: as §1, §2

| Binder | binding result [1] | binding result (FAM19A5 mutant M7) | binding result (FAM19A5 mutant M8) | binding result [2] | binding result [3] | binding result [4] | binding result [5] | binding result [6] | binding result [7] | binding result [8] | binding result [9] | binding result (FAM19A5 mutant M6) | other results |
| --- | --- | --- | --- | --- | --- | --- | --- | --- | --- | --- | --- | --- | --- |
| Anti-FAM19A5 antibody 3-2 (antibody, V domains shown, also called h3-2; m3-2) VH: not shown VL: ALTQPSSVSANPGETVKITCSGGGSYAGSYYYGWYQQKAPGSAPVTLIYESNKRPSDIPSRFSGSTSGSTATLTITGVQADDEAIYYCGSWDSSNGGIFGAGTTLTVL | binds |  |  |  |  |  |  |  |  |  |  |  | binding result (FAM19A5 mutant M2): no binding |
| Anti-FAM19A5 antibody 13F7 (antibody, V domains shown) VH: QVQLQEWGAGLLKPSETLSLTCAINAESFNGYSWTWIRQTPGKGLEWIGEISHFGSANYNPSLKSRATISADKSKNQFSLKLTSVTAVDTAVYYCARALRGTYSRFYYGMDVWGQGTTVTVSS VL: DIVMTQTPLSLPVAPGEPASISCRSSQSLLHSNGYNYLDWYVQKPGQPPQLLIYLGSNRASGVPDRFSGSGSGTDFTLKISRVEAEDVGVYYCMQARQTPLTFGGGTKVEIK |  | binds | no binding |  |  |  |  |  |  |  |  |  |  |
| Anti-FAM19A5 antibody 1-65 (antibody, V domains shown, also called monoclonal antibody clone 1-65) VH: AVTLDESGGGLQTPGGALSLVCKASGFTFSSYQMGWVRQAPGKGLEWVGVINKSGSDTSYGSAVKGRATISRDNGQSTVRLQLNNLRAEDTGTYFCAKGSASYITAATIDAWGHGTEVIVSS VL: ALTQPSSVSANPGETVKITCSGGGSSGYGYGWYQQKSPSSAPLTVIYWNDKRPSDIPSRFSGSKSGSTHTLTITGVQAEDEAVYFCGNDDYSSDSGYVGVFGAGTTLTVL |  | no binding | no binding | binds | no binding | no binding | binds | no binding | no binding | binds | binds | no binding |  |
| Anti-FAM19A5 antibody P2-C12 (antibody, V domains shown) VH: QSLEESGGRLVTPGTPLTLTCTVSGFSLSTYAVTWVRQAPGKGLEWIGYINWRGGTSYANWAKGRFTISKTSSTTVDLKMTSPTTEDTATYFCARDASSGAAFGSYGMDPWGPGTLVTVSS VL: ELDMTQTPSSVSAAVGGTVTIKCQASQSISSYLSWYQQKPGQPPKLLIYEASKLASGVPSRFSGSGYGTEFTLTISDLECADAATYYCQQGYSSTNVWNAFGGGTNVEIK | no binding |  |  | binds | binds | binds | binds | no binding | binds | no binding | no binding | no binding | binding result [10]: no binding; binding result [11]: no binding; binding result [12]: no binding |

Second part, led by results:

| binding result [1] | binding result (FAM19A5 mutant M7) | binding result (FAM19A5 mutant M8) | binding result [2] | binding result [3] | binding result [4] | binding result [5] | binding result [6] | binding result [7] | binding result [8] | binding result [9] | binding result (FAM19A5 mutant M6) | Binder | other results |
| --- | --- | --- | --- | --- | --- | --- | --- | --- | --- | --- | --- | --- | --- |
|  |  | no binding |  |  |  |  |  |  |  |  |  | Anti-FAM19A5 antibody P2-A03 (antibody, V domains shown) VH: QSVEESGGRLVTPGTPLTLTCTVSGFSLNNYDMSWVRQAPGKGLEYIGFMDTDGSAYYATWAKGRFTISRTSTTVDLKMTSPTTEDTATYFCARRGSSYYGGIDIWGPGTPVTVSL VL: ELDLTQTPASVSEPVGGTVTIKCQASQSIGGNLAWYQQKPGQPPKLLIYRASTLASGVPSRFKGSGSGTDFTLTISDLECADAATYYCQSPAYDPAAYVGNAFGGGTELEIL |  |
|  | binds | no binding |  |  |  |  |  |  |  |  | no binding | Anti-FAM19A5 antibody 13B4 (antibody, V domains shown) VH: QVQLQESGPGLVKPSGTLSLNCAVSGGSISSSNWWSWVRQPPGKGLEWIGEIYHGGTTNYNPSLKGRVTMSVDKTKNQFSLRLSSVTAVDTAVYYCARWQLVGGLDVWGQGTTVTVSS VL: SYELTQPLSVSVSPGQTASITCSGDKLGNVYASWYQQKPGQSPTLVIYQDNKRPSGIPERFSGSNSGKTATLTISGTQALDEADYYCQAWDSSTAVFGGGTKLTVL |  |
